Laboratory results published in patent US20200283741.
Changes are numbered by the printed parent chain. In names and notes the source's numbering stands.

T1: HbA1c-type αF8P (α-fructosyl-valyl-histidyl-leucyl-threonyl-prolyl-glutamyl-glutamyl-lysine)
T1 chain: VHLTPEEK

T2: HbC1c-type αF8P
T2 chain: VHLTPKEK

T3: HbS1c-type αF8P
T3 chain: VHLTPVEK

B1: En42FX R108L (protein)
chain: MAPRANTKIIVVGGGGTMGSSTALHLLRAGYTPSNITVLDTYPIPSAQSAGYDLNKIFGISGANKHDLQLSLEAFDMWKNDPLFKPFFHNVGQMDVSSTEEGIKRLRLRYQSLLRAGIGLEKTNFLLESEDEILAKAPHFTREQIKGWKGLFCGDGGWLAAAKAINAIGQFLKEQGVKFGFGEAGTFKKPLFADADEKTCIGVETVDGTKYYADKVVLAAGAWSSTLVDLEEQCVSKAWVFAHIQLTPAEAAAYKNTPVIYDGDYGFFIEPDENGIIKVCDEFPGFTHFKMHQPYGSPVPKLISVPRSHAKHPTDTYPHASEVTIKKAINRFLPRFNDKELFNRAMCWCTDTADSNLLVCEHPRWKGFYLATGDSGHSFKLLPNIGKHVVELLEGRLESVFKDAWRWRPGSGDALKSRRAAPAKDLADMPGWRNEAKM
B2: En42FX R105L (protein)
chain: B1 chain with R105L, L108R
B3: En42FX S112D (protein)
chain: B1 chain with L108R, S112D
B4: En42FX R105D (protein)
chain: B1 chain with R105D, L108R
B5: En42FX R108Q (protein)
chain: B1 chain with L108Q
B6: En42FX R105S (protein)
chain: B1 chain with R105S, L108R
B7: En42FX S112E (protein)
chain: B1 chain with L108R, S112E
B8: En42FX R108E (protein)
chain: B1 chain with L108E
B9: En42FX R108D (protein)
chain: B1 chain with L108D
B10: CFP-T7-H40-3M (protein)
chain: MTSNRADTRVIVVGGGGTIGSSTALHLVRSGYAPANITVLDTFEIPSAQSAGHDLNKIMGIDHGNKVNLQMSLEARQMWKEDELFQPFFHNTGRMDCESTPKGIEKLKKYYQKLHDAGAGLEKTHAWLDNEDEILSKMPLLQRDQIQGWKAIWSQDGGWLAAAKAINAIGQFLKERGVKFGFGGAGSFKQPLFDDEGTTCIGVETADGTKYYADKVVLAAGAWSPTLVDLEDQCCSKAWVYAHIQLTPEEAAEYKGVPVVYNSEYGFFFEPDEFGVIKVCNEFPGFSRFKEHQPYGAPSPKRISVPRSHAKHPTDTYPDASEVSIKKAIATFLPRFQDKELFNRALCWCTDTADSTLLMCEHPKWKNFILATGDSGHSFKILPNVGKYVVELIEGRLPEEMAYQWRWRPGGDALKSRRAAPPKDLADMPGWKHDPKL
B11: CFP-T7-H40-3M K113E (protein)
chain: B10 chain with K113E
B12: CFP-T7-H40-3M K113A (protein)
chain: B10 chain with K113A
B13: CFP-T7-H40-3M K113T (protein)
chain: B10 chain with K113T
B14: CFP-T7-H40-3M K102A (protein)
chain: B10 chain with K102A
B15: CFP-T7-H40-3M K106D (protein)
chain: B10 chain with K106D
B16: CFP-T7-H40-3M K102E (protein)
chain: B10 chain with K102E
B17: CFP-T7-H40-3M K113S (protein)
chain: B10 chain with K113S
B18: CFP-T7-H40-3M K106A (protein)
chain: B10 chain with K106A

What was measured:
[1] = target: T1, HbA1c-type αF8P …
HbC1c-type αF8P = target: T2, HbC1c-type αF8P
HbS1c-type αF8P = target: T3, HbS1c-type αF8P

Row | Protein | relative activity on substrate (reference, designated as 100%) [1] | relative activity on substrate (activity on HbA1c-type αF8P = 100%) (HbC1c-type αF8P) | relative activity (HbS1c/HbA1c), fold over En42FX before modification (HbS1c-type αF8P) | relative activity on substrate (activity on HbA1c-type αF8P = 100%) (HbS1c-type αF8P) | relative activity (HbC1c/HbA1c), fold over En42FX before modification (HbC1c-type αF8P) | specific activity on substrate [1] | specific activity on substrate (HbC1c-type αF8P) | specific activity on substrate (HbS1c-type αF8P) | relative activity (HbS1c/HbA1c), fold over H40-3M before modification (HbS1c-type αF8P) | relative activity (HbC1c/HbA1c), fold over H40-3M before modification (HbC1c-type αF8P)
1 | B1 | 100% | 13% | improved by about 1.4 to 3.7 times | 150% |  |  |  |  |  | 
2 | B2 | 100% | 9% |  | 64% | improved by about 1.1 to 10.8 times |  |  |  |  | 
3 | B3 | 100% | 16% |  | 63% |  |  |  |  |  | 
4 | B4 | 100% | 86% |  | 114% | improved by about 1.1 to 10.8 times |  |  |  |  | 
5 | B5 | 100% | 15% |  | 67% |  |  |  |  |  | 
6 | B6 | 100% | 13% | improved by about 1.4 to 3.7 times | 56% |  |  |  |  |  | 
7 | B7 | 100% | 41% |  | 82% |  |  |  |  |  | 
8 | B8 | 100% | 31% |  | 100% |  |  |  |  |  | 
9 | B9 | 100% | 23% |  | 95% |  |  |  |  |  | 
10 | B10 | 100% | 11% |  | 39% |  |  |  |  |  | 
11 | B11 | 100% | 91% |  | 97% |  | at least 20 mU/mg | at least 20 mU/mg | at least 20 mU/mg |  | 
12 | B12 | 100% | 38% |  | 104% |  | at least 20 mU/mg | at least 20 mU/mg | at least 20 mU/mg |  | 
13 | B13 | 100% | 40% |  | 104% |  | at least 20 mU/mg | at least 20 mU/mg | at least 20 mU/mg |  | 
14 | B14 | 100% |  |  | 77% |  |  |  |  | about 1.97 times greater than that prior to modification | 
15 | B15 | 100% | 48% |  | 83% |  | at least 20 mU/mg | at least 20 mU/mg | at least 20 mU/mg |  | 
16 | B16 | 100% |  |  | 68% |  |  |  |  | about 1.74 times greater than that prior to modification | 
17 | B17 | 100% | 103% |  | 130% |  | at least 20 mU/mg | at least 20 mU/mg | at least 20 mU/mg | improved by about 2.1 to 3.3 times | improved by about 2.8 to 9.4 times
18 | B18 | 100% | 31% |  | 81% |  | at least 20 mU/mg | at least 20 mU/mg | at least 20 mU/mg | improved by about 2.1 to 3.3 times | improved by about 2.8 to 9.4 times
